From publication PMC10013841 (Proceedings of the National Academy of Sciences of the …, 2023)

Target: SARS-CoV-2 Spike S1 domain (amino acids 14 to 681), HEK293-produced (SARS-CoV-2, UniProt P0DTC2 14-681)
Test: far-Western, overlay or dot blot
Details: both partners purified

B1: cyanovirin-N (natural protein)
chain: LGKFSQTCYNSAIQGSVLTSTCERTNGGYNTSSIDLNSVIENVDGSLKWQPSNFIETCRNTQLAGSSELAAECKTRAQQFVSTKINLDDHIANIDGTLKYE
notes: also called CV-N
binding result: binds
